Experimental data published in publication PMC11700592, “Noncoding RNA Terc-53 and hyaluronan receptor Hmmr regulate aging in mice” (Protein & Cell, 2024).

Target: T1, His-tagged Hmmr (mouse, UniProt Q00547 1-794)
T1 construct: Hmmr, mouse; It is not restated for the bacterial construct; also called His-Hmmr; purified Hmmr; source: bacteria BL21 (DE3), purified (Ni-NTA)
T1 sequence (looked up): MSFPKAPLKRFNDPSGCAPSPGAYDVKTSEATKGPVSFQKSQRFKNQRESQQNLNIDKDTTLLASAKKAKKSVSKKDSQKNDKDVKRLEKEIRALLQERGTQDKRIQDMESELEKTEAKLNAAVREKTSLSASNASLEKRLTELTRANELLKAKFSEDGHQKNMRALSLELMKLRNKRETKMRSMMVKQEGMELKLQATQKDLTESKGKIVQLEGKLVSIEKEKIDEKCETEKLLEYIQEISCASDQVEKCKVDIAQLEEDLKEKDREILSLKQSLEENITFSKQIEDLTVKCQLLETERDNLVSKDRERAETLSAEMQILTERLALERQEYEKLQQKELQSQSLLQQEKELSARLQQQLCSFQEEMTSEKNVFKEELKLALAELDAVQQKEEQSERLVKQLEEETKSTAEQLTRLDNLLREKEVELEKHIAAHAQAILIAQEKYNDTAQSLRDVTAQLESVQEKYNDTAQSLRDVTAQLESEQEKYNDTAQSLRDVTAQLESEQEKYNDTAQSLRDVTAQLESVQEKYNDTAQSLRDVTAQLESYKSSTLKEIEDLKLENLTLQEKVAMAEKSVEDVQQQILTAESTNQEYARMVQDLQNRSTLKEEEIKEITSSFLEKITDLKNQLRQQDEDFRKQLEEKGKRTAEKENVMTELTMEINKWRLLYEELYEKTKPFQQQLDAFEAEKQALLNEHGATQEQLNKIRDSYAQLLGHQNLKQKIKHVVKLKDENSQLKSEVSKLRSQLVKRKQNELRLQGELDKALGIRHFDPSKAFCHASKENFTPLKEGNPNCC
Assay: co-IP; in vitro binding assay: purified His-tagged Hmmr and HA-tagged Trim25 mixed without RNA or with in vitro transcribed Terc-53, 5S rRNA, full-length Terc or Terc-53 mut; one sample with Terc-53 treated with RNase A; immunoprecipitated with His antibody, blot with HA antibody
Conditions: both partners purified

binding result: binds
B1: HA-tagged Trim25 (natural protein, mouse, UniProt Q61510 1-634, looked up)
chain: MAELNPLAEELSCSVCLELFKEPVTTPCGHNFCMSCLDETWVVQGPPYRCPQCRKVYQVRPQLQKNTVMCAVVEQFLQAEQARTPVDDWTPPARFSASSAATQVACDHCLTEIAVKTCLVCMASFCQEHLRPHFDSPAFQDHPLQSPIRDLLRRKCTQHNRLRELFCPEHGECICHICLVEHKTCSPTTLSQASADLEYKLRNKLTIMHSHINGATKALEDVRSKQQCVQDSMKRKMEQLRQEYMEMKAVIDAAETSSLRKLKEEEKRVYGKFDTIYQVLVKKKSEMQKLKAEVELIMDKGDEFEFLEKAAKLQGESTKPVYIPKIDLDHDLIMGIYQGAADLKSELKHSIKKLQKKSEEHNGSGNKGDQTQSTFKPVQPSKKTIQEKKTKKTPVAPGPPSHFSPNKLPTFGAPGQSLDSKATSPDAAPKASAAQPDSVGVKAKVLENFLTKSRTELLEYFVKVIFDYNTAHNKVSLSNKYTTASVSDGLQHYRSHPQRFTYCSQVLGLHCYKNGIHYWEVELQKNNFCGVGICYGSMERQGPESRLGRNPNSWCVEWFNNKISAWHNNVEKTLPSTKATRVGVLLNCDHGFVIFFAVTEKVHLMYKFKVDFTEALYPAFWVFSAGTTLSICSK
notes: Trim25, mouse; also called HA-Trim25; purified Trim25; source: purified
